B1: SNAP91 (parent)
chain: FAQPMMRPPFGAAAVPGTQLSPSP

Variants of: B1
Experiment: protein stability index of a GFP-peptide fusion (GPS, HEK-293T) (PSI 1-6); higher = more stable
Details: c terminus: a fixed tail appended
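Note: lentivirally expressed fusions sorted by FACS into six bins by GFP to DsRed ratio, PSI derived from sequencing read proportions per bin multiplied by bin number.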

| Variant | protein stability index |
| --- | --- |
| FAQPMMRLPFGAAAVPGTQLSPSP [P8L] | 2.87 |
| FAQPMMRWPFGAAAVPGTQLSPSP [P8W] | 2.64 |
| FAQPMMRGPFGAAAVPGTQLSPSP [P8G] | 2.97 |
| FAQPMMRCPFGAAAVPGTQLSPSP [P8C] | 2.39 |
| FAQPMMRFPFGAAAVPGTQLSPSP [P8F] | 2.97 |
| FAQPMMRDPFGAAAVPGTQLSPSP [P8D] | 3.5 |
| FAQPMMRTPFGAAAVPGTQLSPSP [P8T] | 3.02 |
| FAQPMMRNPFGAAAVPGTQLSPSP [P8N] | 2.98 |
| FAQPMMRQPFGAAAVPGTQLSPSP [P8Q] | 3.36 |
| FAQPMMRIPFGAAAVPGTQLSPSP [P8I] | 2.49 |
| FAQPMMRSPFGAAAVPGTQLSPSP [P8S] | 2.96 |
| FAQPMMREPFGAAAVPGTQLSPSP [P8E] | 3.75 |
| FAQPMMRYPFGAAAVPGTQLSPSP [P8Y] | 2.79 |
| FAQPMMRKPFGAAAVPGTQLSPSP [P8K] | 2.97 |
| FAQPMMRAPFGAAAVPGTQLSPSP [P8A] | 3.82 |
| FAQPMMRMPFGAAAVPGTQLSPSP [P8M] | 3.01 |
| FAQPMMRRPFGAAAVPGTQLSPSP [P8R] | 3.03 |
| FAQPMMRVPFGAAAVPGTQLSPSP [P8V] | 3.11 |
| FAQPMMRHPFGAAAVPGTQLSPSP [P8H] | 3.16 |
| FAQPRMRPPFGAAAVPGTQLSPSP [M5R] | 4.15 |
| FAQPYMRPPFGAAAVPGTQLSPSP [M5Y] | 2.64 |
| FAQPSMRPPFGAAAVPGTQLSPSP [M5S] | 3.31 |
| FAQPWMRPPFGAAAVPGTQLSPSP [M5W] | 1.96 |
| FAQPVMRPPFGAAAVPGTQLSPSP [M5V] | 3.01 |

| Variant | protein stability index |
| --- | --- |
| FAQPTMRPPFGAAAVPGTQLSPSP [M5T] | 3.07 |
| FAQPMMRPPFSAAAVPGTQLSPSP [G11S] | 4.04 |
| FAQPMMRPPFVAAAVPGTQLSPSP [G11V] | 3.35 |
| FAQPMMRPPFRAAAVPGTQLSPSP [G11R] | 4.01 |
| FAQPMMRPPFWAAAVPGTQLSPSP [G11W] | 1.88 |
| FAQPMMRPPFDAAAVPGTQLSPSP [G11D] | 3.7 |
| FAQPMMRPPFAAAAVPGTQLSPSP [G11A] | 3.74 |
| FAQPMMRPPFFAAAVPGTQLSPSP [G11F] | 2.86 |
| FAQPMMRPPFMAAAVPGTQLSPSP [G11M] | 3.29 |
| FAQPMMRPPFPAAAVPGTQLSPSP [G11P] | 3.98 |
| FAQPMMRPPFIAAAVPGTQLSPSP [G11I] | 2.73 |
| FAQPMMRPPFCAAAVPGTQLSPSP [G11C] | 2.96 |
| FAQPMMRPPFLAAAVPGTQLSPSP [G11L] | 3.04 |
| FAQPMMRPPFQAAAVPGTQLSPSP [G11Q] | 4.35 |
| FAQPMMRPPFEAAAVPGTQLSPSP [G11E] | 3.43 |
| FAQPMMRPPFNAAAVPGTQLSPSP [G11N] | 3.67 |
| FAQPMMRPPFKAAAVPGTQLSPSP [G11K] | 3.55 |
| FAQPMMRPPFTAAAVPGTQLSPSP [G11T] | 3.44 |
| FAQPMMRPPFYAAAVPGTQLSPSP [G11Y] | 2.91 |
| FAQPMMRPPFHAAAVPGTQLSPSP [G11H] | 2.91 |
| FAQPMMRPPKGAAAVPGTQLSPSP [F10K] | 3.83 |
| FAQPMMRPPRGAAAVPGTQLSPSP [F10R] | 3.86 |
| FAQPMMRPPTGAAAVPGTQLSPSP [F10T] | 4.14 |
| FAQPMMRPPQGAAAVPGTQLSPSP [F10Q] | 4.33 |

| Variant | protein stability index |
| --- | --- |
| FAQPMMRPPDGAAAVPGTQLSPSP [F10D] | 4.52 |
| FAQPMMRPPSGAAAVPGTQLSPSP [F10S] | 3.81 |
| FAQPMMRPPAGAAAVPGTQLSPSP [F10A] | 3.98 |
| FAQPMMRPPWGAAAVPGTQLSPSP [F10W] | 2.1 |
| FAQPMMRPPMGAAAVPGTQLSPSP [F10M] | 4.12 |
| FAQPMMRPPCGAAAVPGTQLSPSP [F10C] | 2.95 |
| FAQPMMRPPYGAAAVPGTQLSPSP [F10Y] | 2.83 |
| FAQPMMRPPEGAAAVPGTQLSPSP [F10E] | 3.99 |
| FAQPMMRPPLGAAAVPGTQLSPSP [F10L] | 4.12 |
| FAQPMMRPPHGAAAVPGTQLSPSP [F10H] | 3.58 |
| FAQPMMRPPGGAAAVPGTQLSPSP [F10G] | 4.2 |
| FAQPMMRPPNGAAAVPGTQLSPSP [F10N] | 4.14 |
| FAQPMMRPPPGAAAVPGTQLSPSP [F10P] | 4.31 |
| FAQPMMRPPVGAAAVPGTQLSPSP [F10V] | 4.7 |
| FAQPMMRPPIGAAAVPGTQLSPSP [F10I] | 3.99 |
| FAQPMMEPPFGAAAVPGTQLSPSP [R7E] | 3.22 |
| FAQPMMKPPFGAAAVPGTQLSPSP [R7K] | 3.34 |
| FAQPMMGPPFGAAAVPGTQLSPSP [R7G] | 2.23 |
| FAQPMMYPPFGAAAVPGTQLSPSP [R7Y] | 1.89 |
| FAQPMMMPPFGAAAVPGTQLSPSP [R7M] | 2.42 |
| FAQPMMCPPFGAAAVPGTQLSPSP [R7C] | 2.3 |
| FAQPMMHPPFGAAAVPGTQLSPSP [R7H] | 2.81 |
| FAQPMMSPPFGAAAVPGTQLSPSP [R7S] | 3.32 |
| FAQPMMDPPFGAAAVPGTQLSPSP [R7D] | 3.13 |

| Variant | protein stability index |
| --- | --- |
| FAQPMMPPPFGAAAVPGTQLSPSP [R7P] | 2.87 |
| FAQPMMWPPFGAAAVPGTQLSPSP [R7W] | 1.7 |
| FAQPMMVPPFGAAAVPGTQLSPSP [R7V] | 2.49 |
| FAQPMMTPPFGAAAVPGTQLSPSP [R7T] | 2.67 |
| FAQPMMAPPFGAAAVPGTQLSPSP [R7A] | 3.55 |
| FAQPMMIPPFGAAAVPGTQLSPSP [R7I] | 2.4 |
| FAQPMMLPPFGAAAVPGTQLSPSP [R7L] | 2.38 |
| FAQPMMQPPFGAAAVPGTQLSPSP [R7Q] | 2.62 |
| FAQPMMFPPFGAAAVPGTQLSPSP [R7F] | 1.55 |
| FAQPMMNPPFGAAAVPGTQLSPSP [R7N] | 2.92 |
| FAQPMMRPPFGYAAVPGTQLSPSP [A12Y] | 2.53 |
| FAQPMMRPPFGRAAVPGTQLSPSP [A12R] | 3.33 |
| FAQPMMRPPFGFAAVPGTQLSPSP [A12F] | 2.83 |
| FAQPMMRPPFGEAAVPGTQLSPSP [A12E] | 3.39 |
| FAQPMMRPPFGQAAVPGTQLSPSP [A12Q] | 3.62 |
| FAQPMMRPPFGGAAVPGTQLSPSP [A12G] | 3.5 |
| FAQPMMRPPFGSAAVPGTQLSPSP [A12S] | 2.91 |
| FAQPMMRPPFGPAAVPGTQLSPSP [A12P] | 2.7 |
| FAQPMMRPPFGKAAVPGTQLSPSP [A12K] | 3.16 |
| FAQPMMRPPFGWAAVPGTQLSPSP [A12W] | 2.77 |
| FAQPMMRPPFGTAAVPGTQLSPSP [A12T] | 2.91 |
| FAQPMMRPPFGLAAVPGTQLSPSP [A12L] | 2.42 |

From the supplement of paper PMC10567573
